The target of assay [1] is p66^W401A subunit of HIV-1 reverse transcriptase, expressed in trans (HIV-1 (pSG3)). The assay is described as follows: cell-based or functional assay.
Assay [2] addresses p66^L234A subunit of HIV-1 reverse transcriptase, expressed in trans (HIV-1 (pSG3)). The assay is described as follows: cell-based or functional assay.
For assay [3], the target named is p66 subunit of HIV-1 reverse transcriptase, expressed in trans with Met-Gly on the N-terminus (HIV-1 (pSG3)). The experiment in a line: cell-based or functional assay.
For assay [4], the target named is p66^W410A subunit of HIV-1 reverse transcriptase, expressed in trans (HIV-1 (pSG3)). The experiment in a line: cell-based or functional assay.
For assay [5], the system named is M7 virions complemented with wildtype trans-RT (Vpr-p51/p66). The experiment in a line: Inhibition of trans-RT using NRTI and NNRTI, TZM-b1 reporter cell infectivity assay. The note with it: for antiviral effect, inhibition of infectivity: TZM-b1 indicator cells, 3TC 0.04, 0.2 and 1.0 μM, nevirapine 1.0, 5.0 and 5.0 μM as printed. The assay is classed as cell-based, HIV-1. The procedure:
Virions derived by cotransfection with M7, vpr-p51/p66 and vpr-IN were used to infect the TZM-b1 reporter cell line. The two RT drugs, 3TC and nevirapine, were analyzed at concentrations of 0.04-1.0 μM for 3TC and 1.0-25.0 μM for nevirapine as described in Example 1. The results are expressed as a percentage of untreated virus.
The trans-heterodimer assay is of clinical relevance for analyzing HIV-1 RT inhibitors, drug resistance and the effects of drug resistance mutations on viral fitness. To examine the response of the trans-heterodimeric RT to anti-RT drugs, transfection-derived M7 virions complemented with wildtype trans-RT (Vpr-p51/p66) were used to infect the TZM-b1 indicator cells in the absence or presence of either 3TC (0.04, 0.2 and 1.0 μM) or nevirapine ([…]).
Virions were derived by cotransfection of 293T cells with M7, vpr-p51/p66 and vpr-IN. The TZM-b1 cells were seeded overnight in 24-well plates at a concentration of 40,000 cells in 250 μl of medium per well. The culture medium was removed and replaced with 250 μl of DMEM containing 1% FBS and 2× drug concentrations (5-fold dilutions). 250 μl of virus suspension normalized for equal IU, as determined by TZM-b1 assay (diluted in DMEM containing 1% FBS and 80 μg/ml DEAE-dextran), was then added to the cells. The two RT drugs used in this analysis, 3TC and nevirapine, were at final concentrations ranging from 0.04-1.0 μM and 1.0-25.0 μM, respectively. The cells were fixed 48 h post-infection, stained with X-gal reagent, and the blue-stained cells were counted using a light microscope as described above. The 50% inhibition concentration (IC50) was measured with a 95% confidence interval.

For assay [6], the system named is HIV-1 NL4-3 with L234A, W398A, W401A and YMAA mutations. The experiment in a line: Infectivity of HIV-1 NL4-3 proviral clones with RT mutations, with efavirenz (FIG. 23). As to conditions: NL4-3 proviral clones with RT mutation, transfected into 293T cells.
Description: Additional analysis of the W401A and W410A mutations was conducted in the context of the complete HIV-1 NL4-3 proviral clone. […] The non-infectious RT-minus M7 clone was included as negative control (lane 2). […] Probing a replica blot with mAb to CA confirmed that approximately the same amount of each virus was analyzed (FIG. 13C).
Assay [7] addresses T1, p51W401A/p66W401A trans-heterodimeric RT (Human immunodeficiency virus type 1 group M subtype B, UniProt P04585, W988A).
T1 construct: expressed in transfected cells; host or cells: 293T
The assay is described as follows: Effects of NNRTIs on trans-RT subunit interaction: immunoblot of virion-associated p66 from transfected 293T cells. In kind it is cell-based, HIV-1. As to conditions: p51 W401A/p66 W401A RT mutants, FIG. 22.
Description: The dimerization enhancing NNRTI EFV was added to the culture medium 12 h after DNA transfection at concentrations ranging from 0.01-1.0 μM. The transfection-derived virions were collected 48 hours later and analyzed by immunoblot using mAbs to (A) RNase H and (B) CA.
At 24 h post-transfection, the specified concentrations of drug were added. […] The clarified supernatants were processed for and analyzed by immunoblot as described below.
Transfection-derived virions were concentrated by ultracentrifugation through 20% sucrose cushion (125,000×g, 2 hr, 4° C.) using a SW41 rotor (Beckman Inc.). […] The blocked blots were exposed to an appropriate primary antibody for 1 h in blocking buffer with constant mixing. After extension washing, bound antibodies were detected by chemiluminescence using horseradish peroxidase-conjugated species-specific secondary antibodies (Southern Biotechnology Associates, Inc.).

Assay [8] addresses p66^W410L subunit of HIV-1 reverse transcriptase, expressed in trans (HIV-1 (pSG3)). The experiment in a line: cell-based or functional assay.

In the case of “Vpr-p51 fusion protein, wildtype, modified construct with 135 bps of PR sequence (45 amino acids) between Vpr and RT”, in assay [1], the virus infectivity, JLTRG-R5 reporter T cell line (EGFP), percentage of wildtype trans-RT is 50%; the virus infectivity, TZM-b1 reporter cells, percentage of wildtype trans heterodimer came out at 40%; the virus infectivity, TZM-b1 reporter cells, percentage of wildtype trans-RT was determined as 40%. In addition, the virus infectivity, TZM-b1 reporter cells, percentage of wildtype trans heterodimer in assay [2] was below 5%. For the molecule Vpr-p51^W414A fusion protein, the virus infectivity, TZM-b1 reporter cells, percentage of wildtype trans-RT heterodimer in assay [3] is below 50%. As for Vpr-p51^Y405A fusion protein, the virus infectivity, TZM-b1 reporter cells, percentage of wildtype trans heterodimer in assay [4] was 25%. The virus infectivity, TZM-b1 reporter cells, percentage of wildtype trans-RT heterodimer in assay [3] came to 50%.

For `Cc1ccnc2c1NC(=O)c1cccnc1N2C1CC1` [nevirapine], in assay [5] (Human immunodeficiency virus 1, TZM-b1, 48 h, read-out: IC50, inhibition of infectivity), the IC50 amounted to 11 nM. Moreover, the “antiviral effect, inhibition of infectivity” value in assay [5] is on record as “potent, dosage-dependent antiviral effect”. Consider `O=C1Nc2ccc(Cl)cc2[C@@](C#CC2CC2)(C(F)(F)F)O1` [efavirenz], for which the “rescue of infectivity of mutant virus” value in assay [6] is recorded as “not rescued”. On to Vpr-p51^W401L fusion protein, for which, in assay [4], the virus infectivity, TZM-b1 reporter cells, percentage of wildtype trans heterodimer amounted to 40%. The molecule Vpr-p51^N363A;Y405A fusion protein yielded a virus infectivity, TZM-b1 reporter cells, percentage of wildtype trans heterodimer in assay [3] of 35%. The molecule Vpr-p51^W406A fusion protein registered a virus infectivity, TZM-b1 reporter cells, percentage of wildtype trans-RT heterodimer in assay [3] below 50%. For the molecule Vpr-p51^N363A fusion protein, the virus infectivity, TZM-b1 reporter cells, percentage of wildtype trans heterodimer in assay [4] came to 35%. Take Vpr-p51^W398A fusion protein: the virus infectivity, TZM-b1 reporter cells, percentage of wildtype trans-RT heterodimer in assay [3] was below 50%.

For “2′,5′-bis-O-(tert-butyldimethylsilyl)-beta-D-ribofuranosyl 3′-spiro-5″-(4″-amino-1″,2″-oxathiole 2″,2″-dioxide) [TSAO]”, the “RT heterodimerization, destabilization” value in assay [7] is on record as “can destabilize HIV-1 RT heterodimerization”.

As to Vpr-p51^W401A fusion protein, the virus infectivity, TZM-b1 reporter cells, percentage of wildtype trans heterodimer in assay [8] and in assay [4] was 40% throughout.

For the molecule Vpr-p51^W402A fusion protein, in assay [3], the virus infectivity, TZM-b1 reporter cells, percentage of wildtype trans-RT heterodimer was below 50%. `Nc1ccn([C@@H]2CS[C@H](CO)O2)c(=O)n1` [3TC]: in assay [5], the “antiviral effect, inhibition of infectivity” value is reported as “potent, dosage-dependent antiviral effect”.

For the origin of these results see patent publication US20110004951A1, “METHODS AND COMPOSITIONS FOR IDENTIFYING COMPOUNDS THAT INHIBIT HIV-1 SUBUNIT-SPECIFIC REVERSE TRANSCRIPTASE” (UAB Research Foundation, The, priority 2004, published 2011).
